The results in this text go back to a protein production outcome set (Wang et al. 2014).

A short description of this data set: label from the status in PepcDB records.

On to “MDAARFPADARVRVLARRFPPYHRDSPCLAILDRFLHDPTLSAAAVVDDAMRPVGLIDRYSLVEQFLHPYSRDLYHKHSIAAFMDPEPVIVEADSSIDDLSRIIIDAGMRHMVSGFIVTEDGLYLGIGSGHDLFEEVANRKQNHLYHLAHYDPLTSLPNRLLLNDRLKRACLRGQRGGYRIALLFIDLDRFKLVNDTLGHAAGDQLLQGVAGRFAACVRKVDTVARLGGDEFTVLLEPVQGPDEALAVAAKLAQSLERPFLIQNHEITTSASIGVVLFPEHDATVEGLMRKADAAMYCAKREGRNRFALFTEEMNSTVVERVTLESYLNAALEKGEFCCHFQPQMATADDRIVGVEALLRWTNPVLGRVPPLKFIPVAEDTGLILPLGLWALETACAQQVRWLSQGLPPLRMAVNISPLQFRNREFCDQVRAIVQRTGIRAEHLELELTESAVMADAESSVGILRELRDSGIRLAIDDFGTGYSSLSYLRKFPLDRLKIDRSFVSGIDRIPANELIVKAIVALGGSLGLDVIAEGVETPEELECIERCGCSEYQGFRLSEPLTAEDFAHWFEDSGYVLEHHHHHH”, for which the protein production entry is “failed”.

In the case of “MDAEKKSAHFRQISSYKPQLLVLSSIQENPSSKISEKANIKADNDAEIGVFGAEKYFSMKLDHVDSTADITKQHEKENTHDHPNANPNPNPNPHPHPHPQLTKTTSSRSKTSRHGTPSVRSESSCNSQTFLMRINNHNENKQRKMNDTSISFGGFRCYGPCSGVKTVHTDPKNSCKSRNSDRDFVAYDARKHNDKPRLHFEAKKADFHAQEKISLPIQRSDIAMNLERKLSLLTWDAIPNQLSTKNNNHNNNGNNSSMSSNTQEEETASVASSDLFEIENITSSVYEPSEASIGWSVVTGSMADQSVISDFDMMKRVTRNGPVVKTKPVIGEKVRSAGFLSGCKSHKAVSVVDSSRKVKETAKVDHHEMSHQKKFKTEIRIQDLSFL”, the protein production result is “failed”.

As to “MDAKARNCLLQHREALEKDIKTSYIMDHMISDGFLTISEEEKVRNEPTQQQRAAMLIKMILKKDNDSYVSFYNALLHEGYKDLAALLHDGIPVVSSSSGKDSVSGITSYVRTVLCEGGVPQRPVVFVTRKKLVNAIQQKLSKLKGEPGWVTIHGMAGCGKSVLAAEAVRDHSLLEGCFPGGVHWVSVGKQDKSGLLMKLQNLCTRLDQDESFSQRLPLNIEEAKDRLRILMLRKHPRSLLILDDVWDSWVLKAFDSQCQILLTTRDKSVTDSVMGPKYVVPVESSLGKEKGLEILSLFVNMKKADLPEQAHSIIKECKGSPLVVSLIGALLRDFPNRWEYYLKQLQNKQFKRIRKSSSYDYEALDEAMSISVEMLREDIKDYYTDLSILQKDVKVPTKVLCILWDMETEEVEDILQEFVNKSLLFCDRNGKSFRYYLHDLQVDFLTEKNCSQLQDLHKKIITQFQRYHQPHTLSPDQEDCMYWYNFLAYHMASAKMHKELCALMFSLDWIKAKTELVGPAHLIHEFVEYRHILDEKDCAVSENFQEFLSLNGHLLGRQPFPNIVQLGLCEPETSEVYQQAKLQAKQEVDNGMLYLEWINKKNITNLSRLVVRPHTDAVYHACFSEDGQRIASCGADKTLQVFKAETGEKLLEIKAHEDEVLCCAFSTDDRFIATCSVDKKVKIWNSMTGELVHTYDEHSEQVNCCHFTNSSHHLLLATGSSDCFLKLWDLNQKECRNTMFGHTNSVNHCRFSPDDKLLASCSADGTLKLWDATSANERKSINVKQFFLNLEDPQEDMEVIVKCCSWSADGARIMVAAKNKIFLFDIHTSGLLGEIHTGHHSTIQYCDFSPQNHLAVVALSQYCVELWNTDSRSKVADCRGHLSWVHGVMFSPDGSSFLTSSDDQTIRLWETKKVCKNSAVMLKQEVDVVFQENEVMVLAVDHIRRLQLINGRTGQIDYLTEAQVSCCCLSPHLQYIAFGDENGAIEILELVNNRIFQSRFQHKKTVWHIQFTADEKTLISSSDDAEIQVWNWQLDKCIFLRGHQETVKDFRLLKNSRLLSWSFDGTVKVWNIITGNKEKDFVCHQGTVLSCDISHDATKFSSTSADKTAKIWSFDLLLPLHELRGHNGCVRCSAFSVDSTLLATGDDNGEIRIWNVSNGELLHLCAPLSEEGAATHGGWVTDLCFSPDGKMLISAGGYIKWWNVVTGESSQTFYTNGTNLKKIHVSPDFKTYVTVDNLGILYILQTLE”, the protein production entry is recorded as “failed”.

For the sequence “MDAKETSATDLKRPREEDDNGGAATMETENGDQKKEPACFSTVIPGWFSEMSPMWPGEAHSLKVEKVLFQGKSDYQDVIVFQSATYGKVLVLDGVIQLTERDECAYQEMITHLPLCSIPNPKKVLVIGGGDGGVLREVARHASIEQIDMCEIDKMVVDVSKQFFPDVAIGYEDPRVNLVIGDGVAFLKNAAEGSYDAVIVDSSDPIGPAKELFEKPFFQSVARALRPGGVVCTQAESLWLHMDIIEDIVSNCREIFKGSVNYAWTSVPTYPSGVIGFMLCSTEGPDVDFKHPLNPIDESSSKSNGPLKFYNAEIHSAAFCLPSFAKKVIESKAN”, the protein production entry was “failed”.

For “MDALIMAGGKGTRMGGVEKPLIKLCGRCLIDYVVSPLLKSKVNNIFIATSPNTPKTKEYINSAYKDYKNIVVIDTSGKGYIEDLNECIGYFSEPFLVVSSDLINLKSKIINSIVDYFYCIKAKTPDVEALAVMIPKEKYPNPSIDFNGLVPAGINVVSPKHGYQKEEIMVIDELIFNINTKDDLKLAEMLLKKDGL”, the protein production result is given as “failed”.

On to “MDANEKKEVIKKRFQEIAMSGGTCCSGGGCCGDSSSSDISRAIGYSEADIEAVPDANMGLGCGNPASIAELKPGDIVLDLGSGAGFDCFLAAQKVGNSGKVIGVDMTPEMVEKVQANARKYGYSNVEFRQGDIEALPVEDSSVDVIISNCVINLAPDKEKVFREAFRVLKLGGRLYISDLVLLDELPEDLKNDRDLLAGCVAGAVLKEEYLKLLKRAGFSVEILAEDPDISKSQYKGLPVESLKLKAWVLEHHHHHH”, for which the protein production result was “not failed”.

With “MDAVVVLCYLLLALPTIIPSVVDGKWLVVAILLLIAIALFFRRPFPLQVVLAVSLLEIAATILNPWGSNVSAGLWFALYAVASLRKRALALVVFAVASLPLSLLYLFMWTSPSEMDNLQDVPENFHLINNIATAVTIMLSNLLATGIGISVRQRREHEAEIAAWAARTTQLGKVTERNRIAREMHDVVAHSLTVMISLSDGAAVVVKKDPERAGDVLGELSRTGRAALADMRRVLGVLRDDSGRPAPLTPLESGQNLAKLLDGFRTAGLPLHYAHTGPGLPADPAFELTVYRIVQESLTNVLRYGRSLSRVDVQVARDGDLVTIDVLDDGRGTREGGSESVGSLGTGQGIAGMNERAGIYAGIVTAGPGKRGGWAVHAELRWNGEKGES”, the protein production result is recorded as “failed”.

With “MDCYLNAANSFARILDEYQTYNSLVVAFDFDDTVYDFHKKGRLYADVVTLLRDLKKINCHLICWTGQEDLTFVKNYLMENNIPFDDINENPPFHVSSSKKVYANVYLDDRAGLKQVFGELTQLLQHESIRIKSV”, the protein production entry is listed as “failed”.

Consider “MDDDMDIQQSYPFTVEVMPVPNKVVKGQTVEIRCELKKEGDFSGTLYTIRYFQFEGEGSLKMDNGITFLPNDRYLLENEKFRLYYTAAGDEAHNFIVVVEDNFSNSYELEFDFNNRNVKDDDLTIVPIGNFSPLLKLEHHHHHH”, for which the protein production entry is given as “failed”.

Consider “MDDGTGAKRTKATVLQRVSSVLNADAHDATALDGGEVGSVYRVSFHDRPDVAVKVDDSPLGIEAAMLQSLDRDTPLPVPEVLHVEPELLVLSFIRGDGRFDERAERDLARHVAALHDTSADVFGFPFDTLSGPFSQSNPWTDSWIDFFRAQRLLPFATAARNEGALPAGEFDRVQRLAETLDARLVEPATPSLLHGDIHPGNAVVADGTVRAVLDPAIYFGHAEVDLAYVDRLDSIGAAFYDEYRQHRDISAGYFEERRDVYVAFHALENVRFFGEDELPRLERALDRLGM”, for which the protein production entry is on record as “failed”.

Take “MDDIDSLILIGVLIALTAFFVASEFAIVRVRRSRIDQLITEGNKRAILARRVITDLDEYLSASQLGITLTSIGLGVLGEPAFERLLHPLFEPLGLPDSVSHAVSFAVAYGLITFLHVVVGELAPKTVAIQKAEQLTLLIAGPLRLFYLLLFPFIWILNGSARLLCGMFGLKPASEHDGSHSEEELRMLLSESLKNGEINPSEYKYVNKIFEFDNRIAKEIMIPRKEMAAVSTEMTMAEMLEVMLKEKYTRWPVTDGDKDSVLGLVNTKHLFSDLLFMTEEERMKMTIHPYVRPVIEVIETIPVHDLLIKMQRERIHMAILSDEYGGTSGLVTTEDILEEIVGEIRDEFDEDEQPLIQKLGDGHYVMDGKVRIDQVNSLLGASIQEDVDTIGGLILKENIDIEAGESIRIGSYTIKVLKMDGRLIKQIDIKEEAGNTTGITAHHKLPLPEPVMLNSATLSEK”: the protein production result is on record as “failed”.

For the sequence “MDDLTNLAARLRLLEDREEIRELIARYGPLADSGDAEALSELWVEDGEYAVVGFATAKGRAAIAALIDGQTHRALMADGCAHFLGPATVTVEGDTATARCHSVVFRCVSGTFGSHRVSANRWTFRRTPAGWRAVRRENALLDGSAAARALLQFR”, the protein production entry was “not failed”.

“MDDQSGDQMRPELTMPPAEAEALRMAYEEAEVILEYGSGGSTVVAAELPGKHVTSVESDRAWARMMKAWLAANPPAEGTEVNIVWTDIGPTGDWGHPVSDAKWRSYPDYPLAVWRTEGFRHPDVVLVDGRFRVGCALATAFSITRPVTLLFDDYSQRRWQHQVEEFLGAPLMIGRLAAFQVEPQPIPPGSLMQLIRTMTSP”: the protein production result was “not failed”.

With “MDDVKDKLKGFMKKVNLSSSSGKFKGQGRVLGSSSSSSAPPVNPIQNRFNSSQAPNPTPRPKPNPNPLPEKPLSSSDQKISGSTRNPDHDPVRAPQDGFDPYGAFITSSNRSQNGYSLSMFECPICKNPFTSEEEVSVHVESCLGDTNGDESSFEKDNNDNDKSEMEKLVVVYLSGKPSESSIDVLLRLFKNIVKEPENAKFRKVRMSNAKIKEAIGDVAGGVELLELVGFELKEENDEIWAVMDVPSEEQSILINKVVGYLEKRKTESSGSSAQVMEPVAPKKIDRENGCFLVQIRVFFSVSENVASRIEVPDSFYSLSADEIKREADLRRKKIAESQLLIPRSYKEKQAKAARKRYKRSMIRVQFPDGVVLQGVFAPWEPTFALYEFVSSALKEPSLQFELLDPVLVKRRVIPHTPAPGQKPITLEDEELVPSALIRFRPIETDSLVFTGLRNELLEISEPLS”, the protein production result was “failed”.

Regarding “MDEDGFSQCSKHFSKRGYFSGGGVCPFCLHERLSSLCPDCAHDLPCSCSSRAAVSFSPSSSSSSSSFSIFAGDISFNISGVGSVGRVASLIECEPAFRRSKSMAIPIKPDSVIDSGLDHGRSKKTSSFWRIFMGNRGDTKPAIMKKSRSVAVAGEFGFSPVPVPATGKGKGWNFPSPIKVFRQSRVSKMIFQQRSPLYRG”, the protein production entry is “failed”.

On to “MDEGMQIVGAVSGLSTPFNQNVSLECYNGILSMLLNGAPLADILHALVLKIEDQRLGTHASVLLLSEDGKRVLTGAAPHLPDSYNQVIHGVEIGPEVGSCGTAAYTGQRVIVEDIEHHPYWALYKSFALVHGLRACWSEPIKDTQGKVLGTFAMYYKEIKSPTVADLTLIAEAARLASLAIERSRSLEFQRLAVKIFDRLPLALVITNASHSVLYANDAFKLMVCLQPDDILAFNPEQFFSPSEPHEIASLFNHLSEGKMWQGELVGLRNNGETFYLDLTVTVFRESHSADLGFAWLFSDVSERKKAAQLIKYQANNDSLTGLANRNALFRQIQELINADSLTPGFSFMLMDLDNFKQVNDTYGHDKGDVLLVQMVEQVKICLDPQAVFARLGGDEFAILLPGVVTQRELSQLADKINKQVYRRYELSHDKGVYSSVSIGIARFPEDALDLEQLLNCADQAMYISKANGRNRYHFFTEQMQQNAERIANLHTLLKQALEQNAFELYFQPIVDATTGLIVRAEVLLRWQHEGQFISPDEFIPIAENSGLIVSIGRCVRQAVMQTIVEMQALGWPMSLAINVSTFEFWSHELQDEFCDSFTDIIEGLGVEDFPYELITLEITESLLMKKHAHLIQVLNELRARGIKISLDDFGTGYSSLSYLANFPIDQIKIDKSFIDRLAEGERHLALIEAIVRLSHALNLRVTAEGVETQEQLQVMMDNHIQEIQGYLFYKPIPKAVFFELLAKQAVISPHSLEHHHHHH”, for which the protein production entry is on record as “failed”.
